Data taken from the DeepSol protein solubility set.

Assay: soluble on expression in E. coli; label from the status in PepcDB or PDB records

Sequence	soluble on expression in E. coli
SISPAQIAEALQGRGWDAEIVTDASMAGQLVDVRPEGILKCVDGRGSDNTRMGGPKMPGGIYAIAHNRGVTSIEGLKQITKEVASKGHLPSVHGDHSSDMLGCGFFKLWVTGRFDDMGYPRPQFDADQGANAVKDAGGIIEMHHGSHTEKVVYINLLANKTLEPNENDQRFIVDGWAADKFGLDVPKFLIAAAATVEMLGGPKNAKIVVP	soluble
MSLSEEDLIENPLPENLLDKVIEGDAREVLKKIPDCSIHLMVTSPPYNVGKEYDEDMTLDEYLEFIEEIMKEVYRVLVWGGRACFNVANLGRKPYIPLHAYLIHLFEKIGFLIRGEIIWDKGEAVSGSSTAWGSWMSPVNPVLRDQHEYIIVMSKGDLKRRKPSDREAKSTITREEFLEFTRSVWKFPPESAKRVGHPAPFPEELPYRCIQLYTFKGDVVLDPFAGVGTTCVAAVKTGRHFVGIEINPEYVKKAEERVKDILSKPTLFEDHEGHHHHHH	soluble
MRILFVAAGSPATVFALAPLATAARNAGHQVVMAANQDMGPVVTGVGLPAVATTDLPIRHFITTDREGRPEAIPSDPVAQARFTGRWFARMAASSLPRMLDFSRAWRPDLIVGGTMSYVAPLLALHLGVPHARQTWDAVDADGIHPGADAELRPELSELGLERLPAPDLFIDICPPSLRPANAAPARMMRHVATSRQCPLEPWMYTRDTRQRVLVTSGSRVAKESYDRNFDFLRGLAKDLVRWDVELIVAAPDTVAEALRAEVPQARVGWTPLDVVAPTCDLLVHHAGGVSTLTGLSAGVPQLLIPKGSVLEAPARRVADYGAAIALLPGEDSTEAIADSCQELQAKDTYARRAQDLSREISGMPLPATVVTALEQLAHHHHHH	soluble
QFLSGQLSIKLWFDKVGHQLIVTILGAKDLPSREDGRPRNPYVKIYFLPDRSDKNKRRTKTVKKTLEPKWNQTFIYSPVHRREFRERMLEITLWDQARVREEESEFLGEILIELETALLDDEPHWYKLQ	soluble
MHHHHHHIEGRHMLRPGDCEVCISYLGRFYQDLKDRDVTFSPATIEEELIKFCREARGKENRLCYYIGATDDAATKIINEVSKPLAHHIPVEKICEKLKKKDSQICELKYDKQIDLSTVDLKKLRVKELKKILDDWGEMCKGCAEKSDYIRKINELMPKYAPKAASARTDL	soluble
NIGSGTDEKTATARAKVVDWCNELVIASPSTKCELLAKVQETVLGSCAELAEEFLESVLSLAHDSNMEVRKQVVAFVEQVCKVKVELLPHVINVVSMLLRDNSAQVIKRVIQACGSIYKNGLQYLCSLMEPGDSAEQAWNILSLIKAQILDMIDNENDGIRTNAIKFLEGVVVLQSFADEDSLKRDGDFSLADVPDHCTLFRREKLQEEGNNILDILLQFHGTTHISSVNLIACTSSLCTIAKMRPIFMGAVVEAFK	soluble
MKTEEMKFINESEFKKLKHYFEQKNTTSSLVLLVALTTGGRFSEIAKLKREDLDIKNNKIHLRGTKTETSDRIISIDTVTMKRIQSFIDSRPTNISGYIFTVDGKTITNAAVNKVLRKACANLNIKEITIHSLRHSFCSILIHHGFSILYISKHLGHSNPATTQSIYSHLLQETYEREDELEHHHHHH	not soluble
MAYNKEEKIKSLNRMQYEVTQNNGTEPPFQNEYWDHKEEGLYVDIVSGKPLFTSKDKFDSQCGWPSFTKPIEEEVEEKLDTSHGMIRTEVRSRTADSHLGHVFNDGPGPNGLRYCINSAALRFVPKHKLKEEGYESYLHLFNK	not soluble
ALTSNASGTFDGYYYELWKDTGNTTMTVYTQGRFSCQWSNINNALFRTGKKYNQNWQSLGTIRITYSATYNPNGNSYLCIYGWSTNPLVEFYIVESWGNWRPPGATSLGQVTIDGGTYDIYRTTRVNQPSIVGTATFDQYWSVRTSKRTSGTVTVTDHFRAWANRGLNLGTIDQITLCVEGYQSSGSANITQNTFSQSS	soluble
MEGFGMPKLIISGRGGSGKSTLVTLIAHTLKEQKKRVLVVDSDESNIGLSGILGIEPAEKTLMDYLGGKPRVMKKLRSMIRDGETEPELFREKFDLESLSQEFVCWVGSLGLMQIGKIDHAMEGCACPMGAVTRDFLNHVRLEEDQWVLVDTEAGVEHFGRGIVEGADAVVMVVDPSSDAVLLAEKAAKLTHEADKRFGVILNKIDEETEPILTELLTSEGNEIKGVLPYSPAITKMNLKGESLGAYAVKNEVDEIIRELMKCLEHHHHHH	not soluble
MVYSKTFRVEEKSITVSARGTIGVVFYRDFAYLPAVSLICFVPKEEFDIRFLFHALRAIKFKKQGSATGQLTVAQFKEYGIHVPSLKKQKEIAAILDPLYSFFTDLNEGLPAEIELRKKQLDYYQNFLFNWIQKQKELVEQASTN	soluble
MCMQAQDVTIRDQEIKLGQFIKLANLVETGGAAKEVIAEGRVTVNGAVDTRRGKTLRDGDVVCIGTACARVVAGAADDDDYFDEKTANDDFDPEVWRNM	not soluble
MGSDKIHHHHHHMQLKNVQRSYALTLGEKTGSTINVGVFAQKRAKKCTQAPLSIILELSRNKERIGAACTMNFTMDLPGLKGVKVTKMEEREDFIALHVEMPRTPHRCPSCGERTERIHDYRIQKVQHLKLFERWVYLFYRKRRYACRCGKRFAEKACFVERYQRQTVEWNQAFRLRLIQGKNFTDTANQFQTSVTTAMRRFDQLAAPLVKKVDHLPPRIAIDDYKGDTNAGKYQVIIADADTRKPLDILPDRKADTLKRYLQEKGHHVKTVVMDLSYTFKSAVQKALGHPLIIGDPFHFCRYIYWALEGVRRRVQKAFHPYHRKRCKRIKHLFQKEREGLDDKQKKKVERYLELSPDLREAYELKEHFRQWYQEAKMQGREGRMSEVKQGLYAFYRRVEASPLKEFHRAIQTLKNWQTEILNSFAFGLNNGFIEGLNNQTKVIKRNAFGFRRYDRLRNRILLHHQFKHQTFGVG	not soluble
MPYKAKSDLPDNVRNVLPAHAQDIYKEAFNSAWEQYKDKADRRDDASREETAHKVAWAAVKNDYEKGEDDKWHKKK	not soluble
MAHHHHHHMRNSKEGNLIVHDLDFMKRILLNDERKWGEESAPGEGRTESSHQPKIITIVLNNTLCAHSAKFIANSDVLICADGGANRLYNLCQSLATERGAIDDEGSSLKGEEDKNTALHASHTNERSHHVSGRHTISDLFNMPVEKKEKALKRPTEIVPHIICGDFDSINAHVYSYYKNKSVIFEKCANQENTDLDKCIDVIRGYIRTNDKILILGATGNRFDHTCANISCLYKNASLNSLYLIGENNFLFLLQQGSHIIHVSPDVFCKGCGILPFGGKCTIKTEGLKYNLNDECLSFDTLISSSNEVVQREVKIFNDSPVVWSAQLRGDAQSHTHS	soluble
MVRLEDYGTWDEALKRLEASRKALLALLREADPAWLSAPLREGAWTPLMVAEHVALVEDSTARVLRRLRRLAAGENLPPVPVKPGEFKDGKPQAPEGVRPKGGLSLEEVLALLDRARAFLLEEVAKADPQNPATFPHPFFGELNPLGWLRAAAYHEAHHLKALQASLPR	soluble
GSHMAARRGALIVLEGVDGAGKSTQSRKLVEALCAAGHRAELLRFPERSTEIGKLLSSYLQKKSDVEDHSVHLLFSANRWEQVPLIKEKLSQGVTLVVDRYAFSGVAFTGAKENFSLDWCKQPDVGLPKPDLVLFLQLQLADAAKRGRARGELERYENGAFQERALRCFHQLMKDTTLNWKMVDASKSIEAVHEDIRVLSEDAIATATEKPLGELWK	soluble
MGSDKIHHHHHHMNPFQNSFGGHIPQDVAGKQGENVIFIVYNLTDSPDTVDKVKDVCANFSAMIRSMRNRFPDMQFSCTMGFGADAWTRLFPDKGKPKELSTFSEIKGEKYTAVSTPGDLLFHIRAKQMGLCFEFASILDEKLKGAVVSVDETHGFRYMDGKAIIGFVDGTENPAVDENPYHFAVIGEEDADFAGGSYVFVQKYIHDMVAWNALPVEQQEKVIGRHKFNDVELSDEEKPGNAHNAVTNIGDDLKIVRANMPFANTSKGEYGTYFIGYASTFSTTRRMLENMFIGSPAGNTDRLLDFSTAITGTLFFVPSYDLLGELGE	not soluble
MRKELVFVLLALFLCAGCNGNKKKMNGEHDLDAANITLDDHTISFYYNWYGNPSVDGEMKHWMHPIALAPGHSGDVGAISGLNDDIACNFYPELGTYSSNDPEIIRKHIRMHIKANVGVLSVTWWGESDYGNQSVSLLLDEAAKVGAKVCFHIEPFNGRSPQTVRENIQYIVDTYGDHPAFYRTHGKPLFFIYDSYLIKPAEWAKLFAAGGEISVRNTKYDGLFIGLTLKESELPDIETACMDGFYTYFAATGFTNASTPANWKSMQQWAKAHNKLFIPSVGPGYIDTRIRPWNGSTTRDRENGKYYDDMYKAAIESGASYISITSFNEWHEGTQIEPAVSKKCDAFEYLDYKPLADDYYLIRTAYWVDEFRKARSASEDVQLEHHHHHH	soluble
MAIKNAFYAQSGGVTAVINASACGVIQTARKHPDQIGKVYAGRNGIIGALKEELIDTSLESDDAIQALIHTPGGAFGSCRYKLKNISENQREYERLIEVFRAHDIGYFFYNGGGDSQDTAYKVSQLADRMGYPITCIGVPKTVDNDLPFTDCCPGFGSVAKYIATSTLEASLDIKSMCETSTKVFILEVMGRHAGWIAAAGGLAGQSEGEPPHVILFPEIPFNREKFLERVDQCVRDYGYCVVVASEGAQYEDGRFVADAGAKDAFGHTQLGGVAPALANMVKQALGHKYHWAVADYLQRAARHIASATDVEQAYAVGKAAVEMALAGKQALMPTIVRDQAKPYRWSIGEANLSEVANQEKKMPIHYITDNGFGITQDCRDYLQPLIAGESFPPFDDGLPRVAKLKNQLVEKKLRTEFELLEHHHHHH	not soluble
MKPSTSKTTHSPPPEEPTAPFVNDNLPNPEDEPTIGDLNAFHSGEELHRQRSELARANYEKARPEMIANQRAVTAHLFNRYTEDEERKRVEQQKNKEAMNASTSAPTSSRNGGQSVENRKRRNDVVVAPPTSEEEWKRAQQQHWMGQQQPQMQFQMQQQYHSQQQQYIMMQQQHHHMTGMQQIHHQMPSTSSADSIRSVPTPASSMHQPSPAEMRNGCGMSRNATMDMTCSPMSGGQPIVDENNLAVPEGEWFDKLALAVAEQYNVDTILGPDTYDTFLAELDFSSSESPTKQSPMEMNGDRMPSTAPPPAQNPQHIAQLQQQQNKMRLMQQQQQEMQRIEQQRRQQIMQQQQQQQQQEHQRQQMLLQQQQQQQQMQQHHQMNGGGQFATQAHQQAAYMQQMQRMEQIRHQQQQAQQHQQAQQQHQQQAQHHQMGYGIPNGYPQQMHMHPPAYGAHHMPQPTAFANIN	not soluble
MSLHWLFGDQLGPHFLTPGEEGPGPETPLLMIEARSVFRRRRFHRAKAHLVLSAMRHRAAEPGDRVTYVRADTYRQGLARTARGRPVGVHHPTSHAALRLVRALPQVTVGPARGFLVPMTGFAAWAEGHGGKRLRQEDFYRWVRRGHGLLMDGEQPAAGRWNLDHDNREPPPREAASLQVGRPYRPREDDIDEEVRHDLDRWERDGDVSFVGRDGPRLFEGHHHHHH	soluble
